{
  "source": "patent US20220074947A1",
  "about": "(UCB, published 2022)",
  "key": {"[1]": {"target": "T1, human TNFα in complex with compound (1) (human, UniProt P01375 77-233)", "T1 construct": "also called human TNFα +compound (1); TNFα-compound (1) complex", "T1 sequence (P01375 77-233 limits assumed, one chain of several)": "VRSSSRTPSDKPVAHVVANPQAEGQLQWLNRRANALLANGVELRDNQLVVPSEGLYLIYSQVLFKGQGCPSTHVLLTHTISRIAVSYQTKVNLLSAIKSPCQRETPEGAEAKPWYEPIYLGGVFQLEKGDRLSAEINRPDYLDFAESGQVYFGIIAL", "assay": "SPR (BIAcore), against apo human TNFα"}, "[2]": {"target": "T2, human TNFα in complex with compound (2) (human, UniProt P01375 77-233)", "T2 construct": "also called human TNFα +compound (2); compound-distorted human TNFα", "T2 sequence (P01375 77-233 limits assumed, one chain of several)": "as above", "assay": "SPR (BIAcore), against apo human TNFα"}},
  "data": [
    {"binder": "CA185_01979 mouse IgG1 (antibody, V domains shown, mIgG1 heavy chain and kappa light chain; also called CA185_01979.0; VR0001842) VH: EVHLVESGPGLVKPSQSLSLTCSVTGYSITNSYWDWIRKFPGNKMEWMGYINYSGSTGYNPSLKSRISISRDTSNNQFFLQLNSITTEDTATYYCARGTYGYNAYHFDYWGRGVMVTVSS VL: DIQMTQSPASLSASLEEIVTITCQASQDIGNWLSWYQQKPGKSPHLLIYGTTSLADGVPSRFSGSRSGTQYSLKISGLQVADIGIYVCLQAYSTPFTFGSGTKLEIKR", "values": [
      {"measurement": "selective binding for compound-distorted over apo human TNFα (log)", "setting": "[1]", "result": "> 2", "unit": "log"},
      {"measurement": "selective binding for compound-distorted over apo human TNFα (log)", "setting": "[2]", "result": "> 2", "unit": "log"}
    ]}
  ]
}
